Reference: US7618787B2, “Method of screening compound capable of accelerating or inhibiting apoptosis, apoptosis accelarator and apoptosis inhibitor” (Hisamitsu Pharmaceutical Co., Inc., priority 2004, dated 2009)

T1: p73 (Homo sapiens, UniProt O15350)
T1 construct: expressed in transfected cells; host or cells: COS7
T1 sequence (O15350 1-636): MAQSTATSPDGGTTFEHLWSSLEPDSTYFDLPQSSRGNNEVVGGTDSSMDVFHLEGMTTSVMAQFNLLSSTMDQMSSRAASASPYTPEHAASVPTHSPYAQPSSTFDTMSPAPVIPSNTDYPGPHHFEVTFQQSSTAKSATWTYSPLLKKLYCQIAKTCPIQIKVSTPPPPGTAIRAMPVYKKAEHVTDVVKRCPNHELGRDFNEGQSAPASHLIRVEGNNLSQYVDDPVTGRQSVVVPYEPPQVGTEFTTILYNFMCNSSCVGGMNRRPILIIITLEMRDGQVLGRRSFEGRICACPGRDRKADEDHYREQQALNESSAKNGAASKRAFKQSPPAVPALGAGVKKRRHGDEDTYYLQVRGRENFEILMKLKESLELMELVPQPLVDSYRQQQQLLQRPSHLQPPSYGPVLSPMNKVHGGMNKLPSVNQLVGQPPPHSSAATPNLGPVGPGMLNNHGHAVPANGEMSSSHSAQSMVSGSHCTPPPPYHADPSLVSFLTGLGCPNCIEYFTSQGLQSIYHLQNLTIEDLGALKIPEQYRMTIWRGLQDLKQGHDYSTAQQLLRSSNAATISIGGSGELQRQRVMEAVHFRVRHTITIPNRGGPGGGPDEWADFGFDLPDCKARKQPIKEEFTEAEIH


Key:
[1] = target: T1, p73; test: Co-immunoprecipitation with p73 in transfected COS7 cells; format: binding; conditions: COS7, co-immunoprecipitation (FIG. 10, FIG. 28)
Experimental: Whole cell lysates were centrifuged at 15000 rpm for 15 minutes to remove cell debris. The obtained supernatant was pretreated at 4° C. for 30 minutes with protein G-Sepharose (50% slurry, 30 μL; Amersham Pharmacia Biotech). After centrifugation, the supernatant was incubated at 4° C. for 2 hours with an anti-HA polyclonal (Medical and Biological Laboratories) or anti-FLAG monoclonal antibody. The immunocomplexes were precipitated at 4° C. for 30 minutes with protein G-Sepharose beads. After collection by brief centrifugation, the immunoprecipitates were washed three times with lysis buffer, then suspended in 30 μL of 2×Laemmli SDS sample buffer, and treated at 100° C. for 5 minutes. The supernatant was loaded onto 10% SDS-PAGE and analyzed by immunoblot as described above.
To investigate whether IKK-α interacted with p73 in cultured mammal cells, whole cell lysates were prepared from transfected COS7 cells, then immunoprecipitated with an anti-FLAG or anti-HA antibody, and analyzed by immunoblot using an anti-p73 or anti-FLAG antibody, respectively. […] Likewise, HA-p73β was co-immunoprecipitated with FLAG-IKK-α (data not shown). […] To identify determinants of p73 participating in the interaction with IKK-α, several deletion mutants of p73 fused to GST were prepared and examined for their abilities to bind to FLAG-IKK-α by in-vitro pull-down assay. These mutants were designed on the basis of the functional domains of p73 including transactivation, DNA-binding, oligomerization, and SAM domains (FIG. 12).

[2] = target: T1, p73; test: p73 protein level (stabilization) by immunoblot in cotransfected COS7 cells; format: cell-based; conditions: COS7 cotransfection (FIG. 14, 15, 29)
Experimental: Cells were transiently transfected with a total of 2 μg of expression plasmids. After 48 hours of the transfection, the cells were washed with ice-cold PBS and suspended in lysis buffer (pH 8.0; which contained 25 mM Tris-Cl, 137 mM sodium chloride, 1% Triton X-100, 1 mM phenylmethylsulfonyl fluoride (PMSF), and protease inhibitor mix (Roche Molecular Biochemicals)), followed by brief sonication. After centrifugation at 15000 rpm for 10 minutes, the supernatant was collected and assayed for protein concentrations by the Bradford assay (Bio-Rad). Equal amounts of lysates (protein amount: 50 μg) from the whole cells were denatured by boiling in Laemmli SDS-sample buffer, then separated on 10% SDS-polyacrylamide gel (SDS-PAGE), and transferred at room temperature for 1 hour to polyvinylidene difluoride (PVDF) membranes (Immobilon-P; Millipore) in Tris-glycine buffer containing 10% methanol. The membranes were blocked at room temperature for 1 hour with Tris-buffered saline (TBS-T) containing 5% skim milk and 0.1% Tween 20.
As previously reported, some protein kinases (e.g., c-Abl and PKCδ) that interact with p73 can stabilize p73. To confirm whether IKK-α influenced the stabilization of p73, COS7 cells were transfected with a constant amount of HA-p73α expression plasmid together with or without varying amounts of IKK-α expression plasmids and examined for HA-p73α protein levels. […] Next, whether IKK-β influenced the stabilization of p73 and p53 was investigated by transient transfection.

[3] = system: endogenous p53; test: Amount of endogenous p53 in cisplatin-treated U2OS cells (immunoblot); format: cell-based, human; conditions: cisplatin 24 hours (FIG. 30)
[4] = system: U2OS or H1299 cells; test: Apoptosis induced by cisplatin in transfected cells; format: cell-based, human; conditions: U2OS and H1299 (FIGS. 31 and 33)
[5] = system: p53; test: Amount of endogenous p53 in COS7 cells (immunoblot); format: cell-based, African green monkey; conditions: COS7, cisplatin 20 μg/mL for 24 hours (FIG. 35)
Experimental: To examine the influence of UFD2a on endogenous p73, the following experiment was performed. COS7 cells were transfected or untransfected with a FLAG-UFD2a expression plasmid. After 24 hours of the transfection, the cells were exposed to cisplatin (final concentration: 20 μg/mL) for 24 hours or left untreated. Whole cell lysates were prepared from the transfected cells and analyzed for p73α, p53, and UFD2a expression by immunoblot. Actin was utilized as a control for addition.

[6] = system: H1299 cells; test: p73-dependent apoptosis (DAPI staining, abnormal nuclei); format: cell-based, human; conditions: H1299, cotransfection with HA-p73α, 48 hours (FIG. 36)
Experimental: (§1) To examine the influence of UFD2a on p73-dependent apoptosis, the following experiment was performed. p53-deficient H1299 cells were transiently cotransfected with the given combinations (HA-p73α, p53, and FLAG-UFD2a) of expression plasmids. After 48 hours of the transfection, the cells were fixed at room temperature for 30 minutes in 3.7% formaldehyde, then permeabilized at room temperature for 5 minutes with 0.2% Triton X-100, and blocked for 1 hour with 3% BSA. The cells were washed three times with 1×PBS and stained at room temperature for 20 minutes with DAPI (4′,6-diamidino-2-phenylindole; 1 μg/mL). Of the cells transfected with GFP, cells having abnormal nuclei were counted under a microscope.

[7] = system: H1299 cells; test: p53-dependent apoptosis (DAPI staining, abnormal nuclei); format: cell-based, human; conditions: H1299, cotransfection with p53, 48 hours (FIG. 36)
Experimental: as §1

Molecule	complex formation with HA-p73α [1]	amount of HA-p73α [2]	amount of endogenous p53 [3]	apoptosis induced by cisplatin [4]	amount of endogenous p53 [5]	number of apoptotic cells, p73-dependent [6]	p53-dependent apoptosis [7]
IKK-α (K44A): IKK-α with 44th lysine substituted by alanine, SEQ ID NO: 25, lacking kinase activity; apoptosis inhibitor (protein, IKK-alpha(K44A)) MERPPGLRPGAGGPWEMRERLGTGGFGNVCLYQHRELDLKIAIASCRLELSTKNRERWCHEIQIMKKLNHANVVKACDVPEELNILIHDVPLLAMEYCSGGDLRKLLNKPENCCGLKESQILSLLSDIGSGIRYLHENKIIHRDLKPENIVLQDVGGKIIHKIIDLGYAKDVDQGSLCTSFVGTLQYLAPELFENKPYTATVDYWSFGTMVFECIAGYRPFLHHLQPFTWHEKIKKKDPKCIFACEEMSGEVRFSSHLPQPNSLCSLIVEPMENWLQLMLNWDPQQRGGPVDLTLKQPRCFVLMDHILNLKIVHILNMTSAKIISFLLPPDESLHSLQSRIERETGINTGSQELLSETGISLDPRKPASQCVLDGVRGCDSYMVYLFDKSKTVYEGPFASRSLSDCVNYIVQDSKIQLPIIQLRKVWAEAVHYVSGLKEDYSRLFQGQRAAMLSLLRYNANLTKMKNTLISASQQLKAKLEFFHKSIQLDLERYSEQMTYGISSEKMLKAWKEMEEKAIHYAEVGVIGYLEDQIMSLHAEIMELQKSPYGRRQGDLMESLEQRAIDLYKQLKHRPSDHSYSDSTEMVKIIVHTVQSQDRVLKELFGHLSKLLGCKQKIIDLLPKVEVALSNIKEADNTVMFMQGKRQKEIWHLLKIACTQSSARSLVGSSLEGAVTPQTSAWLPPTSAEHDHSLSCVVTPQDGETSAQMIEENLNCLGHLSTIIHEANEEQGNSMMNLDWSWLTE	maintained the ability to form complexes with p73α	almost no effect on the intracellular level of exogenously expressed HA-p73α	no remarkable effect on the amount of endogenous p53	remarkably inhibited	–	–	–
UFD2a: UFD2a protein, SEQ ID NO: 26, U-box ubiquitin protein ligase; apoptosis inhibitor (protein, listed as Homo sapiens) MEELSADEIRRRRLARLAGGQTSQPTTPLTSPQRENPPGPPIAASAPGPSQSLGLNVHNMTPATSPIGASGVAHRSQSSEGVSSLSSSPSNSLETQSQSLSRSQSMDIDGVSCEKSMSQVDVDSGIENMEVDENDRREKRSLSDKEPSSGPEVSEEQALQLVCKIFRVSWKDRDRDVIFLSSLSAQFKQNPKEVFSDFKDLIGQILMEVLMMSTQTRDENPFASLTATSQPIAAAARSPDRNLLLNTGSNPGTSPMFCSVASFGASSLSSLGASGGASNWDSYSDHFTIETCKETDMLNYLIECFDRVGIEEKKAPKMCSQPAVSQLLSNIRSQCISHTALVLQGSLTQPRSLQQPSFLVPYMLCRNLPYGFIQELVRTTHQDEEVFKQIFIPILQGLALAAKECSLDSDYFKYPLMALGELCETKFGKTHPVCNLVASLRLWLPKSLSPGCGRELQRLSYLGAFFSFSVFAEDDVKVVEKYFSGPAITLENTRVVSQSLQHYLELGRQELFKILHSILLNGETREAALSYMAAVVNANMKKAQMQTDDRLVSTDGFMLNFLWVLQQLSTKIKLETVDPTYIFHPRCRITLPNDETRVNATMEDVNDWLTELYGDQPPFSEPKFPTECFFLTLHAHHLSILPSCRRYIRRLRAIRELNRTVEDLKNNESQWKDSPLATRHREMLKRCKTQLKKLVRCKACADAGLLDESFLRRCLNFYGLLIQLLLRILDPAYPDITLPLNSDVPKVFAALPEFYVEDVAEFLFFIVQYSPQALYEPCTQDIVMFLVVMLCNQNYIRNPYLVAKLVEVMFMTNPAVQPRTQKFFEMIENHPLSTKLLVPSLMKFYTDVEHTGATSEFYDKFTIRYHISTIFKSLWQNIAHHGTFMEEFNSGKQFVRYINMLINDTTFLLDESLESLKRIHEVQEEMKNKEQWDQLPRDQQQARQSQLAQDERVSRSYLALATETVDMFHILTKQVQKPFLRPELGPRLAAMLNFNLQQLCGPKCRDLKVENPEKYGFEPKKLLDQLTDIYLQLDCARFAKAIADDQRSYSKELFEEVISKMRKAGIKSTIAIEKFKLLAEKVEEIVAKNARAEIDYSDAPDEFRDPLMDTLMTDPVRLPSGTIMDRSIILRHLLNSPTDPFNRQTLTESMLEPVPELKEQIQAWMREKQNSDH	–	–	–	–	no influence on the amount of endogenous p53	decreased the number of apoptotic cells	could not suppress p53-dependent apoptosis
